Patent US20240052045A1 (VIB VZW, published 2024)
Residue numbers refer to the chain shown, from its start. Numbers in names are those of the source. Blank lines part the entries; values can stand above or below the binder they belong to.

How the values were obtained:
[1] = target: T1, human CCR8 (human, UniProt P51685 1-355); test: flow cytometry competition with parental VHH-67
T1 construct: Expressed on HEK293, HEK293T or CHO-K1 cells, stably or transiently transfected; also called hCCR8
Text: (§1) Multiple His6 tagged VHH variants were thus generated and evaluated by flow cytometry for their ability to compete for binding to hCCR8 with their FLAG3-His6 tagged parental counterpart (VHH-57, VHH-64 or VHH-67).

[2] = target: T1, human CCR8; test: flow cytometry on HEK293 cells with hCCR8 and chimeric/deleted variants
[3] = target: T2, murine CCR8 (mouse, UniProt P56484 1-353); test: flow cytometry on HEK293T cells transiently transfected with mouse CCR8
T2 construct: Transiently expressed on HEK293/HEK293T cells or endogenously expressed on BW5147 cells; also called mouse CCR8; mCCR8
T2 sequence: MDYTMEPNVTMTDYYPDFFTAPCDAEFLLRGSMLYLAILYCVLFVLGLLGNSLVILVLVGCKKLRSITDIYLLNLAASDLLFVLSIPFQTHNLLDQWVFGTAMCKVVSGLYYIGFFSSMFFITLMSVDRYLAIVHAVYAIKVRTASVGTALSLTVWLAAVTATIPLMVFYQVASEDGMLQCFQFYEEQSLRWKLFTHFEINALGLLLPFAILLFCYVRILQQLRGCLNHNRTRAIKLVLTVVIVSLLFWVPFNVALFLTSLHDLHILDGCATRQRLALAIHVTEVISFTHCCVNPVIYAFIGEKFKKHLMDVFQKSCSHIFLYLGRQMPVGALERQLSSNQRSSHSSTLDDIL

[4] = target: T1, human CCR8; test: competitive binding, flow cytometry
[5] = target: T2, murine CCR8; test: flow cytometry on cells transfected with mouse CCR8
[6] = target: T1, human CCR8; test: flow cytometry competition with parental VHH-64
Text: as §1

[7] = target: T1, human CCR8; test: flow cytometry competition with parental VHH-57
Text: as §1

T1 sequence (P51685 whole entry): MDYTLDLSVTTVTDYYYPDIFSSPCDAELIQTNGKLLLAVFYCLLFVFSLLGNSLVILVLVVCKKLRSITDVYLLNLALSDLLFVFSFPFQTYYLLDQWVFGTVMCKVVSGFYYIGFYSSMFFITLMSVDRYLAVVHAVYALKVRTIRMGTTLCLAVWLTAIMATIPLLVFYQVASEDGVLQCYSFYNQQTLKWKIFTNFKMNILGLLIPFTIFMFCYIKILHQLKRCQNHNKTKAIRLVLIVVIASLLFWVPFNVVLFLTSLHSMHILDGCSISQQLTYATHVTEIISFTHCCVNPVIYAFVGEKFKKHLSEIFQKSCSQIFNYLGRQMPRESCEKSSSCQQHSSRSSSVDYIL

B1: VHH-120 (VHH)
VHH: DVQLVESGGGLVQPGGSLRLSCTVSGSIFSLRTVGWYRQAPGKQRELVATISAGGATDYADSVKGRFTISRDNAKNTVYLQMNSLRPEDTAVYYCYAQDSYKIYKSRYTQDYWGQGTLVTVSS
notes: also called VHH-67 with mutations E1D, V65G, V69I, G74A; not shown: C-terminal His6 tag (no FLAG3)
binding result [1]: binds

B2: VHH-121 (VHH)
VHH: B1 VHH with D99Q
notes: also called VHH-67 with E1D, V65G, V69I, G74A, D99Q; not shown: C-terminal His6 tag (no FLAG3)
binding result [1]: binds

B5: VHH-64 (VHH)
VHH: EVQLVESGGGLVQPGGSLRLSCAVSGGIRSIIPAGWYRQVPGKQRELVAAISTAGSADYADSVKGRFTISRDNTKNTAYLQMNSLRPEDTAVYYCNGRQTGWRTRVDYWGQGTLVTVSS
notes: Monovalent VHH purified from E. coli periplasm with C-terminal FLAG3 and His6 tags; not shown: C-terminal FLAG3 and His6 tags
binding result [4]: binds
binding result [5]: binds

B7: VHH-57 (VHH)
VHH: EVQLVESGGGLVQPGGSLRLSCTASGNIFSLLDMKWYRQAPGKQRELVADITSGGSTNYADPVKGRFTISRDNAKNTVYLQMNSLRPEDTAVYYCNAAPYYWGAYRRQESWGQGTLVTVSS
notes: as for B5
binding result [2]: binds
binding result [3]: binds

Continued, values first:

binding result [2]: binds
binding result [3]: binds
B3: VHH-67 (VHH)
VHH: B1 VHH with D1E, G65V, I69V, A74G
notes: as for B5

binding result [1]: binds
B4: VHH-122 (VHH)
VHH: B1 VHH with S100T
notes: also called VHH-67 with E1D, V65G, V69I, G74A, S100T; not shown: C-terminal His6 tag (no FLAG3)

binding result [6]: binds
B6: VHH-84 (VHH)
VHH: B5 VHH with E1D, V40A, T74A, A78V
notes: also called VHH-64 with mutations E1D, V40A, T74A, A78V; not shown: C-terminal His6 tag (no FLAG3)

binding result [7]: binds
B8: VHH-119 (VHH)
VHH: B7 VHH with E1D, N27S, P62S
notes: also called VHH-57 with mutations E1D, N27S, P62S; not shown: C-terminal His6 tag (no FLAG3)
